Legend:
Assay in all cases: SPR
[1] = molecular target: VH1 K20A mutant (His-MBP-VH1 fusion) (vaccinia virus Copenhagen strain, UniProt P20495 1-171, K20A)
[2] = molecular target: VH1 T25A mutant (His-MBP-VH1 fusion) (vaccinia virus Copenhagen strain, UniProt P20495 1-171, T25A)
[3] = molecular target: VH1 T59A mutant (His-MBP-VH1 fusion) (vaccinia virus Copenhagen strain, UniProt P20495 1-171, T59A)
[4] = molecular target: VH1 M60A mutant (His-MBP-VH1 fusion) (vaccinia virus Copenhagen strain, UniProt P20495 1-171, M60A)
[5] = molecular target: VH1 K22A mutant (His-MBP-VH1 fusion) (vaccinia virus Copenhagen strain, UniProt P20495 1-171, K22A)
[6] = molecular target: VH1 C110S mutant (His-MBP-VH1 fusion) (vaccinia virus Copenhagen strain, UniProt P20495 1-171, C110S)

Measured: binding result

B1: EGFR pTyr peptide 986-VDADEpYLIPQQ-998 (11-mer) (peptide)
peptide: VDADEYLIPQQ
binds: all assays above

— article doi:10.1101/2020.05.26.100743 (bioRxiv, 2020)
